The labels stand for the following.
B1: chimeric antibody 45F1F3 (human IgG1) (antibody, V domains shown)
VH: DVQLQESGPGLVKPSQSLSLTCTVTGYSITIDYAWNWIRQFPGNKLEWMGYISNSGYTSYNPSLKSRISFTRDTSKNQFFLQLNSVTPEDSATYYCTRSGHYDLFDYWGQGTTLTVSS
VL: DVVMTQAPLTLSVTIGQPASISCKSSQSLFDRDGKTYLSWLLERPGQSPKRLIYLVSNLDSGVPDRFTGSGSGTDFTLKISRVEAEDLGVYYCWQGTHFPYTFGGGTKVEMKR
B2: chimeric antibody 225H7D12 (human IgG1) (antibody, V domains shown)
VH: QVQLQQSGAEVMKPGASVKLSCKTTGYRFTGYWIEWVKQRPGHGLEWIGEILPGSGVSNNNEKFRDKATFTADTSSNTAYIQLSSLTTDDSAIYYCARKASYYTMDYWGQGTSVTVSS
VL: QIVLTQSPAIMSASLGERVTMTCTASSSVSSFYFHWYQQKPGSSPKLWIYSISNLASGVPTRFSGSGSGTSYSLTISSMEAEDAATYYCHQYHRSPRTFGGGTKLEIKR
B3: humanized antibody 225H7D12 VH1.1 + VL1.2 (antibody, V domains shown)
VH: QVQLVQSGAEVKKPGASVKVSCKTTGYRFTGYWIEWVRQAPGQGLEWIGEILPGSGVSNNNEKFRDRATMTADTSISTAYMELSRLRSDDTAVYYCARKASYYTMDYWGQGTLVTVSS
VL: DIQMTQSPSSLSASVGDRVTITCTASSSVSSFYFHWYQQKPGKAPKLWIYSISNLASGVPSRFSGSGSGTSYTLTISSLQPEDFATYYCHQYHRSPRTFGGGTKLEIK
B4: humanized antibody 225H7D12 VH1.3 + VL1.2 (antibody, V domains shown)
VH: B3 VH with T24A, T25S, R38K, S77N
VL: B3 VL
B5: humanized antibody 225H7D12 VH1.4 + VL1.2 (antibody, V domains shown)
VH: B3 VH with R38K, M70F, S77N
VL: B3 VL
B6: humanized antibody 45F1F3 VH1.3 + VL1.1 (antibody, V domains shown)
VH: QVQLQESGPGLVKPSQTLSLTCTVTGYSITIDYAWNWIRQPPGKGLEWMGYISNSGYTSYNPSLKSRVTISRDTSKNQFFLKLSSVTAADTAVYYCTRSGHYDLFDYWGQGTTVTVSS
VL: DVVMTQSPLSLPVTLGQPASISCKSSQSLFDRDGKTYLSWLLQRPGQSPRRLIYLVSNLDSGVPDRFSGSGSGTDFTLKISRVEAEDVGVYYCWQGTHFPYTFGGGTKVEIK
B7: humanized antibody 45F1F3 VH1.4 + VL1.1 (antibody, V domains shown)
VH: B6 VH with Q1D, V68I, I70F
VL: B6 VL
B8: humanized antibody 270C5C10 VH1.4 + VL1 (antibody, V domains shown)
VH: QVQLVQSGAEVKKPGASVKVSCKASGYTFTDNYMNWARQSPGQSLEWIGDINPNNGGSRYKEKFKDRATLTVDTSIRTAYMELSRLRSDDTAVYYCANPGSYGFAYWGQGTLVTVSS
VL: B6 VL with F30L, R32S, K35R, S39N, L41F, L42Q, N58Q, Y101W, V109L

Numbering of substitutions follows the chain as printed.

The target of the first assay is human GITR expressed on Cho-K1 cells (human) (UniProt Q9Y5U5). Briefly: FACS binding assay with GITR/Cho-K1, chimeric antibody.
Chain of human GITR expressed on Cho-K1 cells (human) (Q9Y5U5 26-241): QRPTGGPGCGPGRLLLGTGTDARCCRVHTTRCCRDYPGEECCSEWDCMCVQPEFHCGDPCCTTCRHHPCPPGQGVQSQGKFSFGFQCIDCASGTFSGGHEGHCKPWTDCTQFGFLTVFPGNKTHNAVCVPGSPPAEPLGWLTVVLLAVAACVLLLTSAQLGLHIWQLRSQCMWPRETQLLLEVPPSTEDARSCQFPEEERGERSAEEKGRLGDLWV
In turn, B1 registered an EC50 of 0.111 µg/mL.

In the case of B2, the concentration giving a half-maximal response (EC50) worked out at 0.112 µg/mL.

For the next assay the target is unchanged. Briefly: FACS binding assay with GITR/Cho-K1, humanized antibody.
B3 had a 50% effective concentration (EC50) of 0.0755 µg/mL.

B4 displayed an EC50 of 0.082 µg/mL. This EC50 and that of the molecule before are within 1.5-fold of each other.

On to B5, for which the EC50 is 0.181 µg/mL.

Regarding B6, the EC50 worked out at 0.106 µg/mL.

B7 came in with an EC50 of 0.0704 µg/mL.

Turning to B8, the EC50 worked out at 0.0558 µg/mL.

The next assay shares this target. Briefly: FACS, chimeric antibody on GITR/Cho-K1 cells, geometric mean, 4-parameter fit.
The molecule B1 showed an EC50 of 0.0443 µg/mL.

In the case of B2, the EC50 worked out at 0.0566 µg/mL.

For the origin of these results see patent publication US20230064703A1.
